Reference: the RNAGym collection of RNA variant scans (doi:10.1101/gr.219683.116)

B1: mRNA-splicing (parent)
chain: AGUUGCUGCUGGGAGCUCCAGCACAGUGAAAUGGACAGAAGGGCAGAGCAA

Variants of: B1
Assay: exon inclusion enrichment index; higher = more inclusion; WT1 exon 5 minigene, HEK293
With G5C C6G U7C U10C A20C G21A the “exon inclusion enrichment index” value was 1.97.
In the case of G5C C6G U7C U10C A20C G21C, the “exon inclusion enrichment index” value is reported as 2.03.
With G5C C6G U7C U10C A20C G21U the “exon inclusion enrichment index” value was 2.17.
In the case of G5C C6G U7C U10C A25U G26C, the “exon inclusion enrichment index” value is reported as 3.41.
In the case of G5C C6G U7C U10C A25U G26A, the “exon inclusion enrichment index” value is reported as 3.89.
For G5C C6G U7C U10C A25U G26U, the “exon inclusion enrichment index” value was 3.03.
For G5C C6G U7A C9A U10A, the “exon inclusion enrichment index” value was 0.95.
In the case of G5C C6G U7C U10C A14U G15A, the “exon inclusion enrichment index” value is reported as 1.41.
In the case of G5C C6G U7C U10C A14U G15U, the “exon inclusion enrichment index” value is reported as 1.46.
In the case of G5C C6G U7C U10C A14U G15C, the “exon inclusion enrichment index” value is reported as 1.8.
In the case of G5C C6G U7A G8C U10C, the “exon inclusion enrichment index” value is reported as 2.57.
In the case of G5C C6G U7C G8U C9U U10C, the “exon inclusion enrichment index” value is reported as 2.82.
For G5C C6G U7C U10C A35G C36G, the “exon inclusion enrichment index” value was 0.751.
For G5C C6G U7C U10C A35G C36A, the “exon inclusion enrichment index” value was 2.07.
For G5C C6G U7C U10C A35G C36U, the “exon inclusion enrichment index” value was 0.0687.
With G5C C6G U7C U10C A39U A40C the “exon inclusion enrichment index” value was 3.55.
With G5C C6G U7C the “exon inclusion enrichment index” value was 0.636.
In the case of G5C C6G U7C U10C A20G G21A, the “exon inclusion enrichment index” value is reported as 3.62.
With G5C C6G U7C U10C A20G G21U the “exon inclusion enrichment index” value was 2.65.
For G5C C6G U7C U10C A20G G21C, the “exon inclusion enrichment index” value was 2.95.
For G5C C6G U7C G8U U10C, the “exon inclusion enrichment index” value was 2.76.
In the case of G5C C6G U7C C9G, the “exon inclusion enrichment index” value is reported as 1.96.
With G5C C6G U7C C9U the “exon inclusion enrichment index” value was 2.47.
For G5C C6G U7C C9A, the “exon inclusion enrichment index” value was 2.73.
In the case of G5C C6G U7C U10C A39C A40G, the “exon inclusion enrichment index” value is reported as 3.52.
With G5C C6G U7C U10C A39C A40U the “exon inclusion enrichment index” value was 1.72.
For G5C C6G U7C U10C A39C A40C, the “exon inclusion enrichment index” value was 3.63.
For G5C C6G U7A G8U C9A, the “exon inclusion enrichment index” value was 1.06.
For G5C C6G G8U C9U, the “exon inclusion enrichment index” value was 1.08.
With G5C C6G G8U U10C the “exon inclusion enrichment index” value was 2.67.
With G5C C6G U7C G11U the “exon inclusion enrichment index” value was 2.67.
With G5C C6G U7C G11C the “exon inclusion enrichment index” value was 2.28.
With G5C C6G U7C G11A the “exon inclusion enrichment index” value was 0.993.
With G5C C6G U7C C9A U10A the “exon inclusion enrichment index” value was 1.93.
For G5C C6G U7C C9A U10G, the “exon inclusion enrichment index” value was 1.77.
With G5C C6G U7C C9A U10C the “exon inclusion enrichment index” value was 4.
With G5C C6G U7C U10C A37C G38A the “exon inclusion enrichment index” value was 2.71.
For G5C C6G U7C U10C A37C G38U, the “exon inclusion enrichment index” value was 2.1.
With G5C C6G U7C U10C A37C G38C the “exon inclusion enrichment index” value was 2.99.
With G5C C6G U7C U10C A31G U32A the “exon inclusion enrichment index” value was 5.21.
For G5C C6G U7C U10C A31G U32G, the “exon inclusion enrichment index” value was 2.67.
With G5C C6G U7C U10C A31G U32C the “exon inclusion enrichment index” value was 4.5.
For G5C C6G U7C U10C A39G, the “exon inclusion enrichment index” value was 2.45.
With G5C C6G U7C U10C A39U the “exon inclusion enrichment index” value was 0.26.
In the case of G5C C6G U7C U10C A39C, the “exon inclusion enrichment index” value is reported as 1.45.
With G5C C6G U7C U10C A37G G38C the “exon inclusion enrichment index” value was 3.22.
For G5C C6G U7C U10C A37G G38U, the “exon inclusion enrichment index” value was 1.81.
With G5C C6G U7C U10C A37G G38A the “exon inclusion enrichment index” value was 2.92.
With G5C C6G U7C U10A G11U the “exon inclusion enrichment index” value was 3.26.
With G5C C6G U7C U10A G11C the “exon inclusion enrichment index” value was 3.41.
With G5C C6G U7C U10A G11A the “exon inclusion enrichment index” value was 2.25.
In the case of G5C C6G U7C U10C A20G, the “exon inclusion enrichment index” value is reported as 0.887.
In the case of G5C C6G U7C U10C A20C, the “exon inclusion enrichment index” value is reported as 3.4.
With G5C C6G U7C U10C A20U the “exon inclusion enrichment index” value was 3.58.
For G5C C6G G8C C9U U10C, the “exon inclusion enrichment index” value was 3.14.
In the case of G5C C6G U7A G8C C9U U10C, the “exon inclusion enrichment index” value is reported as 3.05.
In the case of G5C C6G U7C U10C A29U A30U, the “exon inclusion enrichment index” value is reported as 1.81.
For G5C C6G U7C U10C A29U A30G, the “exon inclusion enrichment index” value was 3.83.
In the case of G5C C6G U7C U10C A29U A30C, the “exon inclusion enrichment index” value is reported as 3.05.
In the case of G5C C6G U7A U10C, the “exon inclusion enrichment index” value is reported as 2.53.
With G5C C6G the “exon inclusion enrichment index” value was 0.0268.
For G5C C6G U7C C9U U10C, the “exon inclusion enrichment index” value was 3.88.
In the case of G5C C6G U7C C9U U10G, the “exon inclusion enrichment index” value is reported as 1.02.
For G5C C6G U7C C9U U10A, the “exon inclusion enrichment index” value was 0.144.
With G5C C6G G8C U10C the “exon inclusion enrichment index” value was 3.08.
In the case of G5C C6G U7A G8U U10C, the “exon inclusion enrichment index” value is reported as 2.93.
With G5C C6G U7C U10C A23U C24G the “exon inclusion enrichment index” value was 3.71.
In the case of G5C C6G U7C U10C A23U C24U, the “exon inclusion enrichment index” value is reported as 0.822.
For G5C C6G U7C U10C A23U C24A, the “exon inclusion enrichment index” value was 2.3.
In the case of G5C C6G U7C U10C A25C G26C, the “exon inclusion enrichment index” value is reported as 4.35.
For G5C C6G U7C U10C A25C G26U, the “exon inclusion enrichment index” value was 4.06.
In the case of G5C C6G U7C U10C A25C G26A, the “exon inclusion enrichment index” value is reported as 4.67.
In the case of G5C C6G U7C G8C C9A U10C, the “exon inclusion enrichment index” value is reported as 3.14.
With G5C C6G U7C U10C A20U G21C the “exon inclusion enrichment index” value was 2.93.
For G5C C6G U7C U10C A20U G21U, the “exon inclusion enrichment index” value was 2.35.
In the case of G5C C6G U7C U10C A20U G21A, the “exon inclusion enrichment index” value is reported as 2.15.
For G5C C6G U7C U10C A14C, the “exon inclusion enrichment index” value was 1.99.
In the case of G5C C6G U7C U10C A14U, the “exon inclusion enrichment index” value is reported as 1.05.
In the case of G5C C6G U7C U10C A14G, the “exon inclusion enrichment index” value is reported as 1.93.
For G5C C6G U7C U10C A23C C24A, the “exon inclusion enrichment index” value was 3.49.
With G5C C6G U7C U10C A23C C24U the “exon inclusion enrichment index” value was 2.07.
With G5C C6G U7C U10C A23C C24G the “exon inclusion enrichment index” value was 5.29.
With G5C C6G U7C G8A C9A U10C the “exon inclusion enrichment index” value was 3.14.
